{
  "source": "patent US20260055162A1",
  "assay_in_all_cases": "cell-based or functional assay",
  "key": {"[1]": {"biological_target": "AA-TGFB-094 (TGFB-094), TGF-BR2 ECD-CD28 Long TM-Lyn ICD", "sequence (chain, as listed by the source limits assumed, form in doubt)": "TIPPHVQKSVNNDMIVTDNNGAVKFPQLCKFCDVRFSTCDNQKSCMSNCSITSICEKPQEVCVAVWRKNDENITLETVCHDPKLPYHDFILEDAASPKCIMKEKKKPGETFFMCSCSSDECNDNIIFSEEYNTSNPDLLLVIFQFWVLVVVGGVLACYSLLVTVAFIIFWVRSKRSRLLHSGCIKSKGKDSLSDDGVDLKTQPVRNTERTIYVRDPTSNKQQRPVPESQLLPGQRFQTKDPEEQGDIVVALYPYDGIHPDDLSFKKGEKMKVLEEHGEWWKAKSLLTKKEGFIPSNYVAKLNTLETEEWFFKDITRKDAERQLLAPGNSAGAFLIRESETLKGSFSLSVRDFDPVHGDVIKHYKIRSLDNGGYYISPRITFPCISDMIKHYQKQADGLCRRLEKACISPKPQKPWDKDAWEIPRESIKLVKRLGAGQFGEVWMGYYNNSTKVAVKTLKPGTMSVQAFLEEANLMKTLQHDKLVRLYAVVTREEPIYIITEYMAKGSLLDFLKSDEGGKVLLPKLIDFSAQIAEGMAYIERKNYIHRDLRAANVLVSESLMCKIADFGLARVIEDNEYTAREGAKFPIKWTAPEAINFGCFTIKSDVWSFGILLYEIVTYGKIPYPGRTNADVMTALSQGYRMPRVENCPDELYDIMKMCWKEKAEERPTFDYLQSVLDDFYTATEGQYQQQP"}, "[2]": {"biological_target": "AA-TGFB-091 (TGFB-091), TGF-BR2 ECD-CD28 Long TM-Syk ICD"}, "[3]": {"biological_target": "AA-TGFB-075 (TGFB-075), TGF-BR2 ECD-SLAMF3 TM-SLAMF3 ICD", "sequence (chain, as listed by the source limits assumed, form in doubt)": "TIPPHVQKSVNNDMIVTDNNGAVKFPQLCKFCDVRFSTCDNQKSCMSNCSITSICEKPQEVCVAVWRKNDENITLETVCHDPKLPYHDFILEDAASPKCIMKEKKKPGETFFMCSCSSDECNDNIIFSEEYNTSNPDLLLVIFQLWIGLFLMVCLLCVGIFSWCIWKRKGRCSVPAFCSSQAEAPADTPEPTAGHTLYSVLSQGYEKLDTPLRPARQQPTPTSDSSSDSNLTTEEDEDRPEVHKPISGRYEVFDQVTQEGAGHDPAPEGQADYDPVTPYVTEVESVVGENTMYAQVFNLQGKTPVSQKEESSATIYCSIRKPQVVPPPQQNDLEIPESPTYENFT"}, "[4]": {"biological_target": "AA-TGFB-051 (TGFB-051), TGF-BR2 ECD-CD28 TM-DAP10v2 ICD", "sequence (chain, as listed by the source limits assumed, form in doubt)": "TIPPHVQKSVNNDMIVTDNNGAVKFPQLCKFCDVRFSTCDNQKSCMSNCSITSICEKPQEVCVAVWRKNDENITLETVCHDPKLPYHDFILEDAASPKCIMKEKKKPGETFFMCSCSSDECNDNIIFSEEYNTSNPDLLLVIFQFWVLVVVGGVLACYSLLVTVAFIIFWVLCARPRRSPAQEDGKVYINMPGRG"}, "[5]": {"biological_target": "AA-TGFB-070 (TGFB-070), TGF-BR2 ECD-SLAMF1 TM-SLAMF1 ICD"}, "[6]": {"biological_target": "AA-TGFB-084 (TGFB-084), TGF-BR2 ECD-NKp30 TM-NKp30 ICD", "sequence (chain, as listed by the source limits assumed, form in doubt)": "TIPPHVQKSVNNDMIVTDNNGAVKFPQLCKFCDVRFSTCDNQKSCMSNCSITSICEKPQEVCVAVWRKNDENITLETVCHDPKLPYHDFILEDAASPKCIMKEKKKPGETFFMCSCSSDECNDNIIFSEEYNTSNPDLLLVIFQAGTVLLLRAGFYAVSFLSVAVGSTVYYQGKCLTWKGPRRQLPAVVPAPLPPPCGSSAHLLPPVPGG"}, "[7]": {"biological_target": "AA-TGFB-071 (TGFB-071), TGF-BR2 ECD-SLAMF5 TM-SLAMF5 ICD"}, "[8]": {"biological_target": "AA-TGFB-074 (TGFB-074), TGF-BR2 ECD-LFA2 TM-LFA2 ICD"}, "[9]": {"biological_target": "AA-TGFB-068 (TGFB-068), TGF-BR2 ECD-FCGR3A TM-FCGR3A ICD", "sequence (chain, as listed by the source limits assumed, form in doubt)": "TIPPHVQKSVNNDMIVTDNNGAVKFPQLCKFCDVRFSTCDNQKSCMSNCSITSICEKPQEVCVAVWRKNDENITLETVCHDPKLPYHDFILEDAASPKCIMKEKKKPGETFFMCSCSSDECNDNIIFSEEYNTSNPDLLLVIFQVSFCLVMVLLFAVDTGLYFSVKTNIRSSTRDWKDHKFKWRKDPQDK"}, "[10]": {"biological_target": "AA-TGFB-069 (TGFB-069), TGF-BR2 ECD-2B4 TM-2B4 ICD", "sequence (chain, as listed by the source limits assumed, form in doubt)": "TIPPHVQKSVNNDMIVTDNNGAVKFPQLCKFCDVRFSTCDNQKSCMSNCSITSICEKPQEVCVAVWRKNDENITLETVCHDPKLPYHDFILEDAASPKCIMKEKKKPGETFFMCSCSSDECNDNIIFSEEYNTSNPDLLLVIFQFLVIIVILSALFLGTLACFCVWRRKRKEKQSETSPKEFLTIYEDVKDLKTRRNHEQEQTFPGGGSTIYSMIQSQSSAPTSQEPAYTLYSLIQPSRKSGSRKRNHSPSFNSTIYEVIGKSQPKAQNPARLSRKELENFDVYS"}, "[11]": {"biological_target": "AA-TGFB-095 (TGFB-095), TGF-BR2 ECD-CD28 Long TM-YES1 ICD", "sequence (chain, as listed by the source limits assumed, form in doubt)": "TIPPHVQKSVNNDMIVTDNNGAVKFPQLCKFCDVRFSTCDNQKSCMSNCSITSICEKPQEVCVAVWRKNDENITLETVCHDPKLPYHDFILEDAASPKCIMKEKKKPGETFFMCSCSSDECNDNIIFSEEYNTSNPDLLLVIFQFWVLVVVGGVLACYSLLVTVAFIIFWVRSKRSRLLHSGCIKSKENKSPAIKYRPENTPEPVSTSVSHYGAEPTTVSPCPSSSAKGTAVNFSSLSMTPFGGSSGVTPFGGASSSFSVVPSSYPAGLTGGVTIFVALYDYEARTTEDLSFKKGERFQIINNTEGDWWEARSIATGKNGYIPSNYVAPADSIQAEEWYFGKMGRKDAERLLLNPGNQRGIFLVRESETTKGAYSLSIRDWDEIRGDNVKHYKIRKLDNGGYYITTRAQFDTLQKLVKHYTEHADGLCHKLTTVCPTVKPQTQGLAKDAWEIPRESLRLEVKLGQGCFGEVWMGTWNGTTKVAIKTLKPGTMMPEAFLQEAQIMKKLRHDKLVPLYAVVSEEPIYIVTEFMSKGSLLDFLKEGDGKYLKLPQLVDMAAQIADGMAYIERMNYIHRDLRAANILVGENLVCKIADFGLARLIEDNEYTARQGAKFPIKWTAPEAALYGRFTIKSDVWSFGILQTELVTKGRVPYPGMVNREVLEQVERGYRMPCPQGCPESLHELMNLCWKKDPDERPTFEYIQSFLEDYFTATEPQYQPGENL"}, "[12]": {"biological_target": "AA-TGFB-083 (TGFB-083), TGF-BR2 ECD-NKp44 TM-NKp44 ICD", "sequence (chain, as listed by the source limits assumed, form in doubt)": "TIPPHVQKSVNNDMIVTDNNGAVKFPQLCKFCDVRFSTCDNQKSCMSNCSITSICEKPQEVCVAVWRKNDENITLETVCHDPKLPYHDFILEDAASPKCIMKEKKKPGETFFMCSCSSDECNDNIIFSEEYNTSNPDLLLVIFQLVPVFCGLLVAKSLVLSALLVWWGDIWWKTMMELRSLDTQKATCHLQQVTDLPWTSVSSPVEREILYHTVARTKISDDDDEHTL"}, "[13]": {"biological_target": "AA-TGFB-079 (TGFB-079), TGF-BR2 ECD-FGFR1 TM-FGFR1 ICD", "sequence (chain, as listed by the source limits assumed, form in doubt)": "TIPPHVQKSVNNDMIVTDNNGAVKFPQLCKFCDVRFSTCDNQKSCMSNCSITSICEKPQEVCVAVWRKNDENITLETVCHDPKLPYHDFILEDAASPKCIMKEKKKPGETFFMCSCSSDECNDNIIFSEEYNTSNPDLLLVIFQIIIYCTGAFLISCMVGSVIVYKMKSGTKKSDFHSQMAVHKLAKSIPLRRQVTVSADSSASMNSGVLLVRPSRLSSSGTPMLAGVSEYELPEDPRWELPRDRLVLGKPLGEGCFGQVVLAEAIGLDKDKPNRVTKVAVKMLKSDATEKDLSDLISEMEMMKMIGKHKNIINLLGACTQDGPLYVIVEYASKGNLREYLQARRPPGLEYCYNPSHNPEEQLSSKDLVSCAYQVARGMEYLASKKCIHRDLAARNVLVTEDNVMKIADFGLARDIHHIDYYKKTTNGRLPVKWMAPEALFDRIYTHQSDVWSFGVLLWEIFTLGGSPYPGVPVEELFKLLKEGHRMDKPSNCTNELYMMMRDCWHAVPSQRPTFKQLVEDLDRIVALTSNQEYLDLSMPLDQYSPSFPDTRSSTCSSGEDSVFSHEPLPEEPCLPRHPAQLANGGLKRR"}, "[14]": {"biological_target": "AA-TGFB-060 (TGFB-060), TGF-BR2 ECD-CD28 Long TM-TRAF2 ICD"}, "[15]": {"biological_target": "AA-TGFB-080 (TGFB-080), TGF-BR2 ECD-DNAM1 TM-DNAM1 ICD", "sequence (chain, as listed by the source limits assumed, form in doubt)": "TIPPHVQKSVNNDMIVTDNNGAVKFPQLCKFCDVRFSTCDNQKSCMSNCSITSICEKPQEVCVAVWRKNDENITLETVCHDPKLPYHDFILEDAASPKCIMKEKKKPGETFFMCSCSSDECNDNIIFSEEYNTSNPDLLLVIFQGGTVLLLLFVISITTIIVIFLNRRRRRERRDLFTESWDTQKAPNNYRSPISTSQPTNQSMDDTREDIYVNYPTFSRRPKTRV"}, "[16]": {"biological_target": "AA-TGFB-056 (TGFB-056), TGF-BR2 ECD-CD28 Long TM-SLP76 ICD", "sequence (chain, as listed by the source limits assumed, form in doubt)": "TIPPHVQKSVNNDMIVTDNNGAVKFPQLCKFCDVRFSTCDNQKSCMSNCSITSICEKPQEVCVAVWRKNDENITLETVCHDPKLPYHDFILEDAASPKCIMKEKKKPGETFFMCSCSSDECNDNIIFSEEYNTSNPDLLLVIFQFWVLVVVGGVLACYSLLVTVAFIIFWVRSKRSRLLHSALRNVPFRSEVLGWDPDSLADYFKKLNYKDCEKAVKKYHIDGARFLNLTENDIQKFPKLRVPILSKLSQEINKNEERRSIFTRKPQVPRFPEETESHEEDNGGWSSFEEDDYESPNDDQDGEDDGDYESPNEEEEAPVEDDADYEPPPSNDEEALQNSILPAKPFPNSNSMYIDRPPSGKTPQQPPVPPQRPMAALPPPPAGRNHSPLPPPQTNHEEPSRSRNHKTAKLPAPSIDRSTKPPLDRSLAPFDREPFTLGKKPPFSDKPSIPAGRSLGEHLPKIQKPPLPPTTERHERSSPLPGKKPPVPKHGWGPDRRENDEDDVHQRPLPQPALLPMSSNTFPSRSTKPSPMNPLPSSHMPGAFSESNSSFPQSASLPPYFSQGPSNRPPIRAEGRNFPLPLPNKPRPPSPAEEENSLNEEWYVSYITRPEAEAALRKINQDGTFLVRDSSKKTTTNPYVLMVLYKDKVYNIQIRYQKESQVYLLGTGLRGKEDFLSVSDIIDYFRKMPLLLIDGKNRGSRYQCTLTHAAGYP"}, "[17]": {"biological_target": "AA-TGFB-096 (TGFB-096), TGF-BR2 ECD-CD28 Long TM-Fgr ICD"}, "[18]": {"biological_target": "AA-TGFB-087 (TGFB-087), TGF-BR2 ECD-TLR4 TM-TLR4 ICD", "sequence (chain, as listed by the source limits assumed, form in doubt)": "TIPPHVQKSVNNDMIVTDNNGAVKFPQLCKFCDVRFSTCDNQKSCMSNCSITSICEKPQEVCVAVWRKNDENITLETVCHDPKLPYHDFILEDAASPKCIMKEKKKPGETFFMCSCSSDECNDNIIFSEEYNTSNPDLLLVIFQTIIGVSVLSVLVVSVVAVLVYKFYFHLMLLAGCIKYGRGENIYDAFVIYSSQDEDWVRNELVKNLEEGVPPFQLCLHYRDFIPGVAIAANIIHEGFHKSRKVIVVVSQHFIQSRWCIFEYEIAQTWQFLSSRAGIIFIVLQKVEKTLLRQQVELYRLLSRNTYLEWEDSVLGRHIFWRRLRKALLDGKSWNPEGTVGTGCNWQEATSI"}},
  "data": [
    {"substance": "recombinant TGF-B1 cytokine (from UniProt P01137 279-390) (ligand)", "values": [
      {"measurement": "5-Day Fold Expansion of NK cells, 10 ng/mL TGF-B1", "setting": "[1]", "result": 1.2, "unit": "fold"},
      {"measurement": "Average % Killing (SKOV-3), 10 ng/mL TGF-B1", "setting": "[1]", "result": 16.5, "unit": "%"},
      {"measurement": "Average IFNg Secretion, 10 ng/mL TGF-B1", "setting": "[1]", "result": "> 9000", "unit": "pg/mL"},
      {"measurement": "Average IP-10 Secretion, 10 ng/mL TGF-B1", "setting": "[1]", "result": 3210},
      {"measurement": "5-Day Fold Expansion of NK cells, 10 ng/mL TGF-B1", "setting": "[2]", "result": 0.24, "unit": "fold"},
      {"measurement": "Average % Killing (SKOV-3), 10 ng/mL TGF-B1", "setting": "[2]", "result": 1.9, "unit": "%"},
      {"measurement": "5-Day Fold Expansion of NK cells, 10 ng/mL TGF-B1", "setting": "[3]", "result": 3.86, "unit": "fold"},
      {"measurement": "Average % Killing (SKOV-3), 10 ng/mL TGF-B1", "setting": "[3]", "result": 9.64, "unit": "%"},
      {"measurement": "Average IFNg Secretion, 10 ng/mL TGF-B1", "setting": "[3]", "result": 4420, "unit": "pg/mL"},
      {"measurement": "Average IP-10 Secretion, 10 ng/mL TGF-B1", "setting": "[3]", "result": 1040},
      {"measurement": "5-Day Fold Expansion of NK cells, 10 ng/mL TGF-B1", "setting": "[4]", "result": 1.42, "unit": "fold"},
      {"measurement": "Average % Killing (SKOV-3), 10 ng/mL TGF-B1", "setting": "[4]", "result": 11.4, "unit": "%"},
      {"measurement": "Average IFNg Secretion, 10 ng/mL TGF-B1", "setting": "[4]", "result": 4200, "unit": "pg/mL"},
      {"measurement": "Average IP-10 Secretion, 10 ng/mL TGF-B1", "setting": "[4]", "result": 671},
      {"measurement": "5-Day Fold Expansion of NK cells, 10 ng/mL TGF-B1", "setting": "[5]", "result": 4.03, "unit": "fold"},
      {"measurement": "Average % Killing (SKOV-3), 10 ng/mL TGF-B1", "setting": "[5]", "result": 13.2, "unit": "%"},
      {"measurement": "Average IFNg Secretion, 10 ng/mL TGF-B1", "setting": "[5]", "result": 7690, "unit": "pg/mL"},
      {"measurement": "Average IP-10 Secretion, 10 ng/mL TGF-B1", "setting": "[5]", "result": 1630},
      {"measurement": "5-Day Fold Expansion of NK cells, 10 ng/mL TGF-B1", "setting": "[6]", "result": 2.19, "unit": "fold"},
      {"measurement": "Average % Killing (SKOV-3), 10 ng/mL TGF-B1", "setting": "[6]", "result": 13.7, "unit": "%"},
      {"measurement": "Average IFNg Secretion, 10 ng/mL TGF-B1", "setting": "[6]", "result": 4870, "unit": "pg/mL"},
      {"measurement": "Average IP-10 Secretion, 10 ng/mL TGF-B1", "setting": "[6]", "result": 1340},
      {"measurement": "5-Day Fold Expansion of NK cells, 10 ng/mL TGF-B1", "setting": "[7]", "result": 3.06, "unit": "fold"},
      {"measurement": "Average % Killing (SKOV-3), 10 ng/mL TGF-B1", "setting": "[7]", "result": 18.8, "unit": "%"},
      {"measurement": "Average IFNg Secretion, 10 ng/mL TGF-B1", "setting": "[7]", "result": "> 9000", "unit": "pg/mL"},
      {"measurement": "Average IP-10 Secretion, 10 ng/mL TGF-B1", "setting": "[7]", "result": 2300},
      {"measurement": "5-Day Fold Expansion of NK cells, 10 ng/mL TGF-B1", "setting": "[8]", "result": 2.4, "unit": "fold"},
      {"measurement": "Average % Killing (SKOV-3), 10 ng/mL TGF-B1", "setting": "[8]", "result": 11.2, "unit": "%"},
      {"measurement": "Average IFNg Secretion, 10 ng/mL TGF-B1", "setting": "[8]", "result": 5730, "unit": "pg/mL"},
      {"measurement": "Average IP-10 Secretion, 10 ng/mL TGF-B1", "setting": "[8]", "result": 1170},
      {"measurement": "5-Day Fold Expansion of NK cells, 10 ng/mL TGF-B1", "setting": "[9]", "result": 1.55, "unit": "fold"},
      {"measurement": "Average % Killing (SKOV-3), 10 ng/mL TGF-B1", "setting": "[9]", "result": 8.25, "unit": "%"},
      {"measurement": "Average IFNg Secretion, 10 ng/mL TGF-B1", "setting": "[9]", "result": 2820, "unit": "pg/mL"},
      {"measurement": "Average IP-10 Secretion, 10 ng/mL TGF-B1", "setting": "[9]", "result": 686},
      {"measurement": "5-Day Fold Expansion of NK cells, 10 ng/mL TGF-B1", "setting": "[10]", "result": 3.86, "unit": "fold"},
      {"measurement": "Average % Killing (SKOV-3), 10 ng/mL TGF-B1", "setting": "[10]", "result": 14.4, "unit": "%"},
      {"measurement": "Average IFNg Secretion, 10 ng/mL TGF-B1", "setting": "[10]", "result": "> 9000", "unit": "pg/mL"},
      {"measurement": "Average IP-10 Secretion, 10 ng/mL TGF-B1", "setting": "[10]", "result": 2340},
      {"measurement": "5-Day Fold Expansion of NK cells, 10 ng/mL TGF-B1", "setting": "[11]", "result": 1.69, "unit": "fold"},
      {"measurement": "Average % Killing (SKOV-3), 10 ng/mL TGF-B1", "setting": "[11]", "result": 11.8, "unit": "%"},
      {"measurement": "Average IFNg Secretion, 10 ng/mL TGF-B1", "setting": "[11]", "result": 6080, "unit": "pg/mL"},
      {"measurement": "Average IP-10 Secretion, 10 ng/mL TGF-B1", "setting": "[11]", "result": 1890},
      {"measurement": "5-Day Fold Expansion of NK cells, 10 ng/mL TGF-B1", "setting": "[12]", "result": 2.08, "unit": "fold"},
      {"measurement": "Average % Killing (SKOV-3), 10 ng/mL TGF-B1", "setting": "[12]", "result": 14.1, "unit": "%"},
      {"measurement": "Average IFNg Secretion, 10 ng/mL TGF-B1", "setting": "[12]", "result": 3960, "unit": "pg/mL"},
      {"measurement": "Average IP-10 Secretion, 10 ng/mL TGF-B1", "setting": "[12]", "result": 968},
      {"measurement": "5-Day Fold Expansion of NK cells, 10 ng/mL TGF-B1", "setting": "[13]", "result": 1.49, "unit": "fold"},
      {"measurement": "Average % Killing (SKOV-3), 10 ng/mL TGF-B1", "setting": "[13]", "result": 9.28, "unit": "%"},
      {"measurement": "Average IFNg Secretion, 10 ng/mL TGF-B1", "setting": "[13]", "result": 3580, "unit": "pg/mL"},
      {"measurement": "Average IP-10 Secretion, 10 ng/mL TGF-B1", "setting": "[13]", "result": 685},
      {"measurement": "5-Day Fold Expansion of NK cells, 10 ng/mL TGF-B1", "setting": "[14]", "result": 1.11, "unit": "fold"},
      {"measurement": "Average % Killing (SKOV-3), 10 ng/mL TGF-B1", "setting": "[14]", "result": 8.77, "unit": "%"},
      {"measurement": "Average IFNg Secretion, 10 ng/mL TGF-B1", "setting": "[14]", "result": 3070, "unit": "pg/mL"},
      {"measurement": "Average IP-10 Secretion, 10 ng/mL TGF-B1", "setting": "[14]", "result": 1230},
      {"measurement": "5-Day Fold Expansion of NK cells, 10 ng/mL TGF-B1", "setting": "[15]", "result": 2.11, "unit": "fold"},
      {"measurement": "Average % Killing (SKOV-3), 10 ng/mL TGF-B1", "setting": "[15]", "result": 10.8, "unit": "%"},
      {"measurement": "Average IFNg Secretion, 10 ng/mL TGF-B1", "setting": "[15]", "result": 4380, "unit": "pg/mL"},
      {"measurement": "Average IP-10 Secretion, 10 ng/mL TGF-B1", "setting": "[15]", "result": 1230},
      {"measurement": "5-Day Fold Expansion of NK cells, 10 ng/mL TGF-B1", "setting": "[16]", "result": 0.41, "unit": "fold"},
      {"measurement": "Average % Killing (SKOV-3), 10 ng/mL TGF-B1", "setting": "[16]", "result": 2.07, "unit": "%"},
      {"measurement": "Average IFNg Secretion, 10 ng/mL TGF-B1", "setting": "[16]", "result": 1.68, "unit": "pg/mL"},
      {"measurement": "5-Day Fold Expansion of NK cells, 10 ng/mL TGF-B1", "setting": "[17]", "result": 1, "unit": "fold"},
      {"measurement": "Average % Killing (SKOV-3), 10 ng/mL TGF-B1", "setting": "[17]", "result": 16, "unit": "%"},
      {"measurement": "Average IFNg Secretion, 10 ng/mL TGF-B1", "setting": "[17]", "result": "> 9000", "unit": "pg/mL"},
      {"measurement": "Average IP-10 Secretion, 10 ng/mL TGF-B1", "setting": "[17]", "result": 2330},
      {"measurement": "5-Day Fold Expansion of NK cells, 10 ng/mL TGF-B1", "setting": "[18]", "result": 2.51, "unit": "fold"},
      {"measurement": "Average % Killing (SKOV-3), 10 ng/mL TGF-B1", "setting": "[18]", "result": 11.9, "unit": "%"},
      {"measurement": "Average IFNg Secretion, 10 ng/mL TGF-B1", "setting": "[18]", "result": 6060, "unit": "pg/mL"},
      {"measurement": "Average IP-10 Secretion, 10 ng/mL TGF-B1", "setting": "[18]", "result": 1260}
    ]}
  ]
}
